The data set concerns the molecule itself. Nature of the data set: SEC; Superose 6 (3.2/300) in 150 mM KCl, 25 mM Tris-HCl pH 7.2, 5% glycerol, 0.05% NP-40, 1 mM EDTA, 4 mM MgCl2; purified Yta7 and mutants. On the technique in general: In gel filtration, larger molecules generally elute earlier.

The values that follow come from paper PMC8410769, “A CDK-regulated chromatin segregase promoting chromosome replication” (Nature Communications, 2021).

B1: Yta7 ATP-binding mutant (K460A, Walker A), 3xFLAG-tagged (enzyme, S. cerevisiae, UniProt P40340 1-1379, looked up)
chain: MARNLRNRRGSDVEDASNAKVGYETQIKDENGIIHTTTRSLRKINYAEIEKVFDFLEDDQVMDKDETPVDVTSDEHHNNNQKGDDEDDDVDLVSPHENARTNEELTNERNLRKRKAHDPEEDDESFHEEDVDDDEEEEEADEFEDEYLDEDSKDNNRRRRAADRKFVVPDPDDDEEYDEDDEEGDRISHSASSKRLKRANSRRTRSSRHPETPPPVRRALRSRTRHSRTSNEENDDENDNSRNEALTLADEIRELQEDSPIREKRFLRERTKPVNYKLPPPLTASNAEEFIDKNNNALSFHNPSPARRGRGGWNASQNSGPTRRLFPTGGPFGGNDVTTIFGKNTNFYNQVPSAFSDNNNNKLILDSDSSDDEILPLGVTPKTKKENTQKKKKKKPEIADLDPLGVDMNVNFDDIGGLDNYIDQLKEMVALPLLYPELYQNFNITPPRGVLFHGPPGTGATLMARALAASCSSDERKITFFMRKGADILSKWVGEAERQLRLLFEEAKKHQPSIIFFDEIDGLAPVRSSKQEQIHASIVSTLLALMDGMDNRGQVIVIGATNRPDAVDPALRRPGRFDREFYFPLPDVKARFKILQIQTRKWSSPLSTNFIDKLAFLTKGYGGADLRSLCTEAALISIQRSFPQIYRSNDKLLVDPSKIKVKVSDFMLALKKIVPSSARSTGSSPQPLPELIKPLLADQLNNLKNKLDYMLNIKDTTFQRNTSLLQNFIDYEEYSGEEEEHDKYGGNEDTSSFRSYEFFESMAESQICKPRLLINGPKGNGQQYVGAAILNYLEEFNVQNLDLASLVSESSRTIEAAVVQSFMEAKKRQPSVVFIPNLDIWINTIPENVILVLSGLFRSLQSNEKILLLCLAENLDISEVKNGILSDFAFDKNIFQLHKPSKENITRYFSNLIELLKTKPSDIPMKKRRVKPLPELQKVTSNAAPTNFDENGEPLSEKVVLRRKLKSFQHQDMRLKNVLKIKLSGLMDLFKNRYKRFRKPPIDDAFLVHLFEPETSNDPNWQPAYIKDENMILEVSTGRKFFNMDLDIVEERLWNGYYSEPKQFLKDIELIYRDANTIGDRERVIKASEMFANAQMGIEEISTPDFIQECKATRQRDLERQELFLEDEEKRAAMELEAKEQSQENILQEPDLKDNKANEFGVAAGNQLQAQLQTTINTASIVNNSEVPQPIDTNLYKKEIPAAIPSAVDKEKAVIPEDSGANEEYTTELIQATCTSEITTDDDERARKEPKENEDSLQTQVTEENFSKIDANTNNINHVKEIQSVNKPNSLHETVEKRERSPIPKEVVEPEQGKKSDKELILTPEQIKKVSACLIEHCQNFTVSQLEDVHSSVAKIIWKSKSAWDKTGTVDEIIKFLSE
notes: Yta7, Saccharomyces cerevisiae; K460A mutant of the Walker A motif within the active AAA+ domain; also called ATPase mutant; source: S. cerevisiae (GAL1-10 promoter, G1-arrested, endogenous copy eliminated), purified (anti-FLAG M2, MonoQ, SEC); not shown: 3xFLAG, C-terminal, kept
As for B1, the stoichiometry N (as a rule, a count of units in the complex or per binding partner) was 6.
